No end group written: not given here. *: point of attachment. Biotin = O=C1N[C@H]2[C@H](CS[C@H]2CCCCC(=O)*)N1
Legend:
[1] = Delivery to the CNS after intraperitoneal injection; type: in vivo
Description: The methods described above in Example 1 were modified to explore alternative modes of delivery to intramuscular injection.

[2] = tested on: neurons in the human spinal cord; assay: Labeling of fresh frozen human spinal cord sections by biotinylated 2404 complexed with quantum dot streptavidin; type: binding; details: overall conclusion
Protocol: FIGS. 6A-6D. Photomicrographs showing TAxI-Streptavidin labels neurons in the adult human spinal cord. Steptavidin conjugated quantum dots (Qdots) were complexed with biotinylated TAxI peptide and incubated on human spinal cord tissue with anti-NeuN and anti-ChAT antibodies. FIG. 6A. Confocal micrographs of ventral root motor neurons stained immunofluorescently for NueN (prominent cytoplasmic stain) and ChAT (lighter cytoplasmic staining) and TAxI-Qdots (primarily visible in the nuclear region). FIG. 6B. High magnification images of the ventral horn stained by immunofluorescence. FIG. 6C. High magnification images of the dorsal grey matter stained by immunofluorescence. FIG. 6D. Spinal cord tissue pre-blocked with 10-fold excess of TAxI-peptide prior to immunofluorescence for NeuN and ChAT and TAxI-QDots.
The ability to target motor neurons that transport peptide-protein complexes and biologically active proteins into the spinal cord provides tremendous potential for utilizing and delivering novel therapeutics for the CNS. This Example examined whether the 2404-peptide could bind to neural elements within the fresh frozen sections of the human spinal cord. […] 2404-steptavidin labeled cells were not prominent in dorsal aspects of the spinal cord.

[3] = tested on: spinal cord motor neurons; assay: Cre recombinase delivery into spinal cord after IM injection in Ai14 reporter mice (tdTomato expression); type: in vivo; details: 2.5 μg into gastrocnemius, one week post-injection
Protocol: To have utility as a therapeutic protein delivery system, the TAxI peptide must traffic cargo without rapid degradation or sequestration. To test for TAxI-mediated delivery of active enzyme to the spinal cord, we generated a series of Cre recombinase chimeras: wild-type Cre (Cre), Cre fused to the TAxI peptide (TAxI-Cre), and Cre fused to a mutated TAxI moiety (TAxI^Q-Cre). After purification, each recombinant Cre protein was injected (2.5 μg) into the gastrocnemius of the Ai14 reporter mice. In these mice, delivery of biologically active Cre recombinase results in td-Tomato expression due the excision of a floxed stop-codon.[27] One week post-injection, confocal microscopy was used to image spinal cords isolated after perfusion fixation. […] Furthermore, td-Tomato^+-cells projected into intermediate lamina of the spinal cord as well as into interneuron polls within multiple longitudinal segments, similar to efferent motor neurons (inset).
The coding sequence for Cre recombinase was obtained from the University of Washington Yeast Resource Center. The TAxI peptide sequence was added to the 5-prime end and both TAxI-Cre and wild-type Cre were subcloned into pRSETb (Invitrogen). To allow for expression and purifaction, each plasmid was transformed into BL21(D3)pLysS and grown in media supplemented with IPTG/X-gal (Promega). […]

Row | Molecule | delivery to the CNS [1] | binding and labeling of neurons in the human spinal cord [2] | tdTomato colocalization with NeuN and ChAT [3] | tdTomato expression in the lumbar spinal cord ([3]; confocal microscopy)
1 | ASGAQAR (GGCASGAQARCGG; disulfide (positions not given here); not fully specified (N-terminus, bridges); also: cyclic, mode not given here) [Clone 2404Q] | robust delivery to the CNS |  |  | 
2 | QSQSQMR (Biotin-SACQSQSQMRCGGG; disulfide (positions not given here); not fully specified (bridges); also: cyclized, mode not given here) [Clone 2404] | robust delivery to the CNS | able to bind and label neurons in the human spinal cord specifically |  | 
3 | TSTAPHLRLRLTSR [Clone 4042] | robust delivery to the CNS |  |  | 
4 | Cre: wild-type Cre recombinase, recombinant 6×-his-tagged (protein, UniProt P06956 1-343, looked up, 6xHis tag, wild-type Cre recombinase, recombinant 6×-his-tagged) Recombinase cre: MSNLLTVHQNLPALPVDATSDEVRKNLMDMFRDRQAFSEHTWKMLLSVCRSWAAWCKLNNRKWFPAEPEDVRDYLLYLQARGLAVKTIQQHLGQLNMLHRRSGLPRPSDSNAVSLVMRRIRKENVDAGERAKQALAFERTDFDQVRSLMENSDRCQDIRNLAFLGIAYNTLLRIAEIARIRVKDISRTDGGRMLIHIGRTKTLVSTAGVEKALSLGVTKLVERWISVSGVADDPNNYLFCRVRKNGVAAPSATSQLSTRALEGIFEATHRLIYGAKDDSGQRYLAWSGHSARVGAARDMARAGVSIPEIMQAGGWTNVNIVMNYIRNLDSETGAMVRLLEDGD |  |  | did not induce tdTomato expression in either NeuN or ChAT-positive cells | small punctuate tdTomato^+-cells

Reference: patent US9056892B2, “Retrograde transport peptide and use of same for delivery to central nervous system” (UNIVERSITY OF WASHINGTON, priority 2011, dated 2015)
